In patent US20120283172A1:

The substances below were run against human growth hormone receptor on IM-9 cells (human) (UniProt P10912) (assay: not given).
Sequence of UniProt P10912 (P10912 19-638): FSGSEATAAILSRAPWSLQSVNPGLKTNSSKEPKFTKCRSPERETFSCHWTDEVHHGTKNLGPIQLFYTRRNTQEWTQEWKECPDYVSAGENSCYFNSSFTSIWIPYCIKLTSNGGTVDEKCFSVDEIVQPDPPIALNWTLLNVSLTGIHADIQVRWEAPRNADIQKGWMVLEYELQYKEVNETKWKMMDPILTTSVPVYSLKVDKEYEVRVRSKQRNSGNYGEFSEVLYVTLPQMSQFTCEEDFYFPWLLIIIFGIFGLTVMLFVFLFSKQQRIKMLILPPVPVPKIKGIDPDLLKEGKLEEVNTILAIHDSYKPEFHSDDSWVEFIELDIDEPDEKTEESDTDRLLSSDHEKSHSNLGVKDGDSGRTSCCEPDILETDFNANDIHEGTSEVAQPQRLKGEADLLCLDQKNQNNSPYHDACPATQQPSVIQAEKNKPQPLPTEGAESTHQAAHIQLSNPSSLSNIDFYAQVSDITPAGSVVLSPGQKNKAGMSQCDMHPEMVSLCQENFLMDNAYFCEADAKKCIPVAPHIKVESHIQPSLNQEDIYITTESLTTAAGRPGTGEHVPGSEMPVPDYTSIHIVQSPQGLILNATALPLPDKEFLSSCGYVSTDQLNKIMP

Row | Substance | EC50, STAT5 phosphorylation in IM-9 cells (intracellular phospho-STAT5 staining, FACS, MFI PE)
1 | (His)F92pAF-5K (ligand) | 1.5 nM
2 | hGH F92pAF (from UniProt P01241 27-217) (ligand) | 0.9 nM

The remaining lines, values ahead:

Row | EC50, STAT5 phosphorylation in IM-9 cells (intracellular phospho-STAT5 staining, FACS, MFI PE) | Substance
3 | 4.6 nM | (His)F92pAF-20K (ligand)
4 | 4.1 nM | (His)F92-pAF-30K (ligand)

Biological target: human growth hormone receptor on IM-9 cells (human) (UniProt P10912)
Test: not given
Remark: another data set of the same source

Row | EC50, STAT5 phosphorylation in IM-9 cells (intracellular phospho-STAT5 staining, FACS, MFI PE) | Substance
5 | 1.1 nM | hGH F92pAF (from UniProt P01241 27-217) (ligand)

The substances below were run against human growth hormone receptor on IM-9 cells (human) (UniProt P10912) (assay: cell-based or functional assay).

Row | Substance | EC50 of STAT5 phosphorylation in IM-9 cells (MFI by intracellular phospho-STAT5 staining)
6 | hGH A155pAF (from UniProt P01241 27-217) (ligand) | 1.3 nM
7 | hGH R134pAF (from UniProt P01241 27-217) (ligand) | 0.9 nM
8 | hGH G136pAF (from UniProt P01241 27-217) (ligand) | 1.4 nM
9 | hGH T135pAF (from UniProt P01241 27-217) (ligand) | 0.9 nM
10 | hGH P133pAF (from UniProt P01241 27-217) (ligand) | 1 nM
11 | hGH Q91pAF (from UniProt P01241 27-217) (ligand) | 2 nM
12 | hGH E88pAF (from UniProt P01241 27-217) (ligand) | 0.9 nM
13 | hGH F92pAF (from UniProt P01241 27-217) (ligand) | 0.8 nM
14 | His-tagged hGH Y143pAF (from UniProt P01241 27-217) (ligand) | 0.8 nM
15 | hGH Y103pAF (from UniProt P01241 27-217) (ligand) | 130000 nM
16 | hGH F139pAF (from UniProt P01241 27-217) (ligand) | 3.3 nM

Next, values leading:

Row | EC50 of STAT5 phosphorylation in IM-9 cells (MFI by intracellular phospho-STAT5 staining) | Substance
17 | 0.8 nM | hGH G131pAF (from UniProt P01241 27-217) (ligand)
18 | 1 nM | hGH Y111pAF (from UniProt P01241 27-217) (ligand)
19 | > 200000 nM | rat growth hormone, wild type (from UniProt P01244 27-216) (ligand)
20 | 16.7 nM | hGH S95pAF (from UniProt P01241 27-217) (ligand)
21 | 8.5 nM | hGH N99pAF (from UniProt P01241 27-217) (ligand)
22 | 2.7 nM | hGH K140pAF (from UniProt P01241 27-217) (ligand)
